Test results published in patent US20230272117A1 (published 2023).
Positions count from the first letter of the chain named.

B1: C1.777a (antibody, V domains shown)
VH: EVQLVESGPGLVQPSQTLSLTCTVSGFSLTNNGVSWVRQPPGKGLEWIAAISSGGSIYYNLAFKSRLSISRNTSKGHVLLKMNSLQTEDTAMYFCVRHRGYYGFNWGYFDYWGQGVMVTVSS
VL: NIQLTQSPSLLSASVGDRVTLSCKGSQNINNYLAWYQQKLGEAPKLLIYKTNSLQTGIPSRFSGSGSGTDYTLTISSLHSEDLATYYCYQYNDGYTFGAGTKLELK
B2: C1.773a (antibody, V domains shown)
VH: B1 VH with V5K, N31S, L61S, N72H, G76S, H77Q, V96A, F104Y, V116A, M117S
VL: B1 VL with Y89S, D93N, L105I
B3: C1.784a (antibody, V domains shown)
VH: EVKLEESGPGLVQPSQTLSLTCTVSGFSLTNNGVSWVRQPPGKGLEWIAAMSSGGNIYYNSAFKSRLSISRDTSKSQVLLKMSSLQTEDTAMYFCGRHRGYYWYNWGFFDYWGQGASVTVSS
VL: B1 VL with Y71F, Y89C, D93N
B4: C1.309 (antibody, V domains shown)
VH: QVQLKESGPGLVAPSQSLSITCTVSGFSLTSYDITWIRQPPGKGLEWLGVIWTGGGTNYNSAFMSRLSISKDSSKSQVFLKMNSLRTDDTAIYYCVRDLRYGYDGFWYFDVWGAGTTVTVSS
VL: DVVMTQTPLSLPVSLGDQASISCRSSQSIVHSNGNTYLEWYLQKPGQSPKLLIYKVSNRFSGVPDRFSGSGTGTDFTLKISRVEAEDLGVYYCFQGSHVPRTFGGGTKLEIK
B5: C1.779B (antibody, V domains shown)
VH: EVKLLESGPGLVQPSQTLSLTCTVSGFSLTSNGVIWVRQPPGKGLEWIAAISSGGNIYYNSGLKSRLGISRDTSKSQVFLKMNSLQTEDTAIYFCTRARGTTTAYFMDAWGQGASVTVSS
VL: ETVMTQSPSSLAVSAGETVTMNCKSSQSLLYSGNQKNYLAWYQQKPGQSPKLLIYWASTRQSGVPDRFIGSGSGTDFTLTISSVQAEDLAIYYCQQYYDTLMKMFGAGTKLEIK
B6: C1.786a (antibody, V domains shown)
VH: EVQLTESGLGLVQPSQTLSLTCSVSGFSLTSYNVHWVRQPTGKGLEWMGVIWTGGYTDSNSPLKSRLSITRDTSKSQVFLKMNSLQSEDIATYYCARERHTMGITKSWYFDYWGQGVMVTVSS
VL: DVQMTQSPASLSASLGETISIECLASEGIFSYLAWYQQKPGKSPQLLIYGANTLQAGVPSRFSGSGSGTQYSLKISSMQPEDEGDYFCQQSYKFPVTFGSGTKLELK
B7: C1.855 (antibody, V domains shown)
VH: B3 VH with K3Q, E5K, N31S, M51I, S53N, D72H, S83N, G96A, W103G, F108Y
VL: B1 VL with A34G, K45R, D93N
B8: C1.841 (antibody, V domains shown)
VH: B3 VH with K3Q, E5L, I48V, D72H, S83N, G96A, W103G, F108Y, A116V, S117M
VL: B1 VL with R18S, T20S, S22R, N30Y, S53N, H79N, Y89C, D93N
B9: C1.847 (antibody, V domains shown)
VH: EVQLKESGPGLVQPSQTLSLTCTVSGFSLTNNGVSWVRQPPGKGLEWIAAISSGGNIYHNSALKSRLSISRNTAQSQVLLKMNSLQTEDTAMYFCARHRGYYGYNWGYFDYWGQGTLVTVSS
VL: B1 VL with N30Y, Y89C, D93N
B10: C1.845 (antibody, V domains shown)
VH: B1 VH with H77Q, V96A, F104Y, V116A, M117S
VL: B1 VL with T69S
B11: C1.851 (antibody, V domains shown)
VH: B9 VH with V37I, H59Y, L63F, A74S, Q75K, S76R, T116A, L117S
VL: NIQLTQSPSLLSASVGDRVTLSCKGSQNINNYLAWYQQKLGEAPKLLIYKTNSLQTGIPSRFSGSGSGTDYTLTISSLHSEDLATYYCCQYNNGYTFGAGTKLELKR
B12: C1.844 (antibody, V domains shown)
VH: B5 VH with K3Q, L5K, F106V
VL: B5 VL with E1D, T2I, T20N, M21I, G33V, I113L
B13: C1.830B (antibody, V domains shown)
VH: EVQLKESGPGLVRPSQTLSLTCSVSGFSLTNYNVHWVRQPTGKGLEWMGIIWTGGYTDYNSDLKSRLSITRDTSKSQVFLKMNGLQTEDVATYYCARERHTMGITKSWYFDYWGQGASVTVSS
VL: B6 VL with V2I, Q3L, A34G, T53S
B14: C1.877 (antibody, V domains shown)
VH: EVQLTESGPGLVQPSQTLSLTCTVSGFSLTSNGVSWVRQPPGKGLEWIAAISSGGSTYYNSAFKSRLSISRHTSKSQVLLNMNSLQTEDTAMYFCARHRGYYWSNWGYFDYWGQGVMVTVSS
VL: B1 VL with N1D, Q3V, L4M, K50E, I75L, L105I
B15: C1.876 (antibody, V domains shown)
VH: B14 VH with E1Q, T5K, S31N, I51M, T57I, N81Q, A96T, W103G, S104Y
VL: B1 VL with N1D, R18S, T20S, S22R, N30Y, S53N, H79N, Y89C, D93N, L103V
B16: C1.879A (antibody, V domains shown)
VH: B14 VH
VL: B11 VL with N1D, L40V, C89Y
B17: C1.781A (antibody, V domains shown)
VH: EVQLTESGPGLVQPSQTLSLTCTVSGFSLTSNGVSWVRLPPGKGLEWIAAISSGGNIYYNSALKSRLSISRDTSKSQVFLKMNSLQTEDTAIYFCTRERGWNYPGITNGYYFDYWGQGTSVTVSS
VL: DIVLTQSPSLLSASVGDRVILSCKAGQKINNYLAWYQQKLGEAPKLLIYNANSLQTGIPSRFSGSGSGTDYTLTISSLQPEDVATYFCQQYNSWYTFGAGTKLEIK
B18: C1.505.hu11 (antibody, V domains shown)
VH: EVQLQESGPGLVKPSETLSLTCTVSGFSLTSNGVSWVRQPPGKGLEWIAAISSGGSTYYNSAFKSRLTISRDTSKNQVSLKLSSVTAADTAVYYCARHRGYYWSNWGYFDYWGQGTLVTVSS
VL: DIQLTQSPSSLSASVGDRVTITCKGSQNINNYLAWYQQKPGKAPKLLIYKTNSLQTGIPSRFSGSGSGTDYTLTISSLQPEDFATYYCCQYNDGYTFGQGTKLEIK

molecular target: T1, human ATP Binding Cassette Subfamily C Member 1 (ABCC1) (UniProt P33527 1-1531); assay: FACS titration on H69AR cells

B1 was tested. Which Kd did it give?
Its Kd is 4.2 nM.

How did the Kd turn out when B2 was run?
The Kd was 3.2 nM.

With B3 as the binder, how does the Kd read?
The Kd was 7 nM.

With B4 as the binder, how does the Kd read?
The Kd was 10 nM.

Which Kd does the source give for B5 here?
Its Kd is 10.1 nM.

Which Kd does the source give for B6 here?
The Kd was 8.3 nM.

molecular target: T1, human ATP Binding Cassette Subfamily C …; assay: FACS titration on C6-hC1 cells

For B7, which Kd is on record?
The Kd was greater than 1000 nM.

For B8, which Kd is on record?
The Kd was 103 nM.

Which Kd does the source give for B9 here?
Its Kd is 21.7 nM.

How did the Kd turn out when B10 was run?
Its Kd is 21.8 nM.

Which Kd does the source give for B11 here?
The Kd was 98 nM.

B12 was tested. Which Kd did it give?
Its Kd is 65.1 nM.

For B13, which Kd is on record?
Its Kd is 14.4 nM.

molecular target: T2, cynomolgus monkey ABCC1 (UniProt Q864R9 1-1531); assay: FACS titration on C6 cells; C6 cells
T2 sequence (Q864R9 whole entry): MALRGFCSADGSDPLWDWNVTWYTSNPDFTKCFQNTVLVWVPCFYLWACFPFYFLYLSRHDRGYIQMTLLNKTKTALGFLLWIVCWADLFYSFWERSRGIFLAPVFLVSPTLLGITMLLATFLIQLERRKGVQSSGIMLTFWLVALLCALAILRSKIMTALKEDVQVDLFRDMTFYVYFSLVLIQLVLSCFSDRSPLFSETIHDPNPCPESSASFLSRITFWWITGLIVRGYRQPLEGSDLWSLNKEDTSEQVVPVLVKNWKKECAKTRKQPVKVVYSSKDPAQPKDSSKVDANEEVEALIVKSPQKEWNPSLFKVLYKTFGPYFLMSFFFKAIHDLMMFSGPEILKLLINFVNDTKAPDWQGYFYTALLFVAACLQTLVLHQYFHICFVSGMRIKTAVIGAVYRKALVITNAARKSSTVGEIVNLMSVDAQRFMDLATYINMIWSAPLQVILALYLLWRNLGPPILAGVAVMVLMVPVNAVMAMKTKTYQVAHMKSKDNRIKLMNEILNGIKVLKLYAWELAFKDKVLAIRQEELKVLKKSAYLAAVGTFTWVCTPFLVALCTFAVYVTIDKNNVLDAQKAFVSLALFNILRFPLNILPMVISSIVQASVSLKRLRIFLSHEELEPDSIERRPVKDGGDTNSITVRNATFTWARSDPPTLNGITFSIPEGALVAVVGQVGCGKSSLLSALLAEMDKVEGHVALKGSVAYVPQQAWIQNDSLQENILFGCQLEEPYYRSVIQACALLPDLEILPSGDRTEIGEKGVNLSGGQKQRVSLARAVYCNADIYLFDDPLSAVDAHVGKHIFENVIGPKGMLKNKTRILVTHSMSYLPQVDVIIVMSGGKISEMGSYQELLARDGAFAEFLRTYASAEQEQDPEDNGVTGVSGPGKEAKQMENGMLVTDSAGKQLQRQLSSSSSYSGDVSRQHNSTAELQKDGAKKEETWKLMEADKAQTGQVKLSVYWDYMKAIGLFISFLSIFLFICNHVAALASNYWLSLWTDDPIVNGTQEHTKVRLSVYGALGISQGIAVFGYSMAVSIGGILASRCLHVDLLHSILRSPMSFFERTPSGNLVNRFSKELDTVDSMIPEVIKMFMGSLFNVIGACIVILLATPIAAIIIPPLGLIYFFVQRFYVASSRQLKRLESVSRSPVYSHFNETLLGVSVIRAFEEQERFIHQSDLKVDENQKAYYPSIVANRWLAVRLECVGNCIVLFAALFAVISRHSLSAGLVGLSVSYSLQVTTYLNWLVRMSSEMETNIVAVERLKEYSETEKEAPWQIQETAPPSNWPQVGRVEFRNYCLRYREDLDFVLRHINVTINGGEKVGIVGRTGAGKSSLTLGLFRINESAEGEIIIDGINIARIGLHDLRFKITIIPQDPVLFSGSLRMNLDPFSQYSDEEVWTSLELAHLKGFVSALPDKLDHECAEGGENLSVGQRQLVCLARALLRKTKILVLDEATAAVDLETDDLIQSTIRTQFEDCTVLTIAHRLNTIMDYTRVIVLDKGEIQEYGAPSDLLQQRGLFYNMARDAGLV

With B14 as the binder, how does the Kd read?
Its Kd is 66.8 nM.

How did the Kd turn out when B15 was run?
Its Kd is 3.7 nM.

How did the Kd turn out when B16 was run?
The Kd was 27.2 nM.

molecular target: T2, cynomolgus monkey ABCC1; assay: FACS titration on C6-cC1 cells

For B7, which Kd is on record?
Its Kd is 279 nM.

How did the Kd turn out when B8 was run?
Its Kd is 42.3 nM.

With B9 as the binder, how does the Kd read?
The Kd was 23.3 nM.

With B10 as the binder, how does the Kd read?
The Kd was 20.1 nM.

How did the Kd turn out when B11 was run?
Its Kd is 28 nM.

How did the Kd turn out when B12 was run?
Its Kd is 34.1 nM.

Which Kd does the source give for B13 here?
Its Kd is 8.6 nM.

molecular target: T1, human ATP Binding Cassette Subfamily C …; assay: FACS titration on C6 cells

For B17, which Kd is on record?
Its Kd is 116 nM.

Which Kd does the source give for B1 here?
Its Kd is 41.2 nM.

B2 was tested. Which Kd did it give?
The Kd was 33 nM.

How did the Kd turn out when B3 was run?
Its Kd is 38.2 nM.

For B4, which Kd is on record?
The Kd was 133 nM.

How did the Kd turn out when B5 was run?
Its Kd is 83.3 nM.

How did the Kd turn out when B18 was run?
Its Kd is 158 nM.
